Target: T1, LTβR (Homo sapiens, UniProt P25942+P36941)
T1 construct: cDNA fragments encoding for the transmembrane and cytoplasmic domains of the LTβR, TACI, the p75TNF receptor, CD27; expressed in transfected cells; host or cells: 293T
Test: Recruitment assay with hybrid receptor (CD40 extracellular domain, LTβR transmembrane and intracellular domain)
Assay type: cell-based
Details: 293T cells, CD40 as relative standard
Method: The recruitment of TRAF to CD40 can be quantitatively measured using the assay described in example 1. For that purpose, the assay conditions were adjusted in such a way that TRAF expression was in significant excess over the expression of CD40. This was the case when the TRAF expression plasmid was used at a two to three fold excess over the CD40 expression plasmid. The CD40 bound TRAF concentration was measured as described in example 1. A reference extract containing CD40/TRAF complexes served as a standard in each assay. This standard extract consisted of a large pool extract from cells that had been co-transfected with the plasmids encoding CD40/TRAF1, CD40/TRAF2, CD40/TRAF3, CD40/TRAF5 and CD40/TRAF6. The extracts were tested for the presence of CD40/TRAF complexes and the complex concentrations in each extract were arbitrarily defined as 1000 U/ml. The extracts were frozen in small aliquots and kept at −80° C. until further use. By comparing unknown samples to these extracts, it was possible to determine the relative CD40-TRAF complex concentrations in arbitrary units. The necessary normalization for sample-to-sample variations in the CD40 expression was calculated with the following formula: […]
Recruitment of various TRAFs to receptors different to CD40, was tested by the recruitment assay described in example 1 by transforming cells with expression plasmids encoding hybrids receptors comprising the extracellular domain of CD40 and transmembrane and intracellular domain of anyone of the following receptors: BCMA (Madry et al. 1998 and Hatzoglou et al. 2000) the LTβR-receptor (Mosialos et al. 1995, Crowe et al. 1994, Nakano et al. 1996), TACI (von Bulow et al. 1997, Xia et al. 2000) the p75TNFR (Rothe et al. 1994) and the CD27 (Gravestein et al. 1998, Akiba et al. 1998) (for details of constructs see example 7). Measurement of TRAF recruitment to the signalling domains of BCMA the LTβR-receptor TACI the p75TNFR or the CD27 was carried out by co-transfecting 293T cells with a plasmid encoding anyone of the above hybrid receptors together with a plasmid encoding TRAF and measurement of the TRAF/Receptor complex using the ELISA sandwich described in example 1 and the quantitation as described in example 3. The assay with the hybrid receptors is schematically represented in FIG. 4A. The results shown in FIG. 4B indicate that, using the assay monitoring recruitment in intact cells, any TRAF recruiting receptor of the TNF/NGF family can be examined with the same antibody sandwich assay described in example 1 and the amount of TRAF-receptor/CD40 hybrid complex can be monitored as described in example 3. […] Recruitment of TRAF3 to all the receptors tested is similar. […]

T1 sequence (P25942+P36941 fused): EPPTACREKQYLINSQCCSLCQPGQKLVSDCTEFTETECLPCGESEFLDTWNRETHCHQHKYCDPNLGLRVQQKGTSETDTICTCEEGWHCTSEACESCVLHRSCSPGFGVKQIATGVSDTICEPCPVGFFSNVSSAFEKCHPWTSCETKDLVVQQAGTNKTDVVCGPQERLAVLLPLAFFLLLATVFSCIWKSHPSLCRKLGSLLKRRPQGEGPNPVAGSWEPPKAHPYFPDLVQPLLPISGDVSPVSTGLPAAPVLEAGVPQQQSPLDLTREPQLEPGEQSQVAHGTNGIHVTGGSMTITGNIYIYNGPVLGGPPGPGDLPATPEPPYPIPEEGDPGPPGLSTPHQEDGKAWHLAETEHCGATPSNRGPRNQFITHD

recruitment to LTβR, folds higher than recruitment to CD40	Molecule
25 fold	TRAF1: TNF receptor associated factor 1, adaptor protein overexpressed in 293T cells from pcDNA3 (protein, UniProt Q13077 1-416, looked up, full-length, TNF receptor associated factor 1, adaptor protein overexpressed in 293T cells from pcDNA3) MASSSGSSPRPAPDENEFPFGCPPTVCQDPKEPRALCCAGCLSENPRNGEDQICPKCRGEDLQSISPGSRLRTQEKAHPEVAEAGIGCPFAGVGCSFKGSPQSVQEHEVTSQTSHLNLLLGFMKQWKARLGCGLESGPMALEQNLSDLQLQAAVEVAGDLEVDCYRAPCSESQEELALQHFMKEKLLAELEGKLRVFENIVAVLNKEVEASHLALATSIHQSQLDRERILSLEQRVVELQQTLAQKDQALGKLEQSLRLMEEASFDGTFLWKITNVTRRCHESACGRTVSLFSPAFYTAKYGYKLCLRLYLNGDGTGKRTHLSLFIVIMRGEYDALLPWPFRNKVTFMLLDQNNREHAIDAFRPDLSSASFQRPQSETNVASGCPLFFPLSKLQSPKHAYVKDDTMFLKCIVETST
about 60 fold	TRAF2: TNF receptor associated factor 2, human adaptor protein expressed from pcDNA3 (protein, UniProt Q12933 1-501, looked up, full-length, TNF receptor associated factor 2, human adaptor protein expressed from pcDNA3) MAAASVTPPGSLELLQPGFSKTLLGTKLEAKYLCSACRNVLRRPFQAQCGHRYCSFCLASILSSGPQNCAACVHEGIYEEGISILESSSAFPDNAARREVESLPAVCPSDGCTWKGTLKEYESCHEGRCPLMLTECPACKGLVRLGEKERHLEHECPERSLSCRHCRAPCCGADVKAHHEVCPKFPLTCDGCGKKKIPREKFQDHVKTCGKCRVPCRFHAIGCLETVEGEKQQEHEVQWLREHLAMLLSSVLEAKPLLGDQSHAGSELLQRCESLEKKTATFENIVCVLNREVERVAMTAEACSRQHRLDQDKIEALSSKVQQLERSIGLKDLAMADLEQKVLEMEASTYDGVFIWKISDFARKRQEAVAGRIPAIFSPAFYTSRYGYKMCLRIYLNGDGTGRGTHLSLFFVVMKGPNDALLRWPFNQKVTLMLLDQNNREHVIDAFRPDVTSSSFQRPVNDMNIASGCPLFCPVSKMEAKNSYVRDDAIFIKAIVDLTGL

Source: patent US7642046B2, “Method for monitoring recruitment of proteins to the intracellular domain of a receptor in intact cells” (priority 2001, dated 2010)
